This test has as its target F-actin (polymerised from Ca2+-ATP G-actin of rabbit skeletal muscle) (rabbit, UniProt P68135 1-377). Kind of test: co-sedimentation.

For one molecule, Kd results are on record in publication PMC9798103 (The Journal of Cell Biology, 2022).

B1: N-terminal half of C. elegans RHGF-1 (RHGF-1-N) (domain or fragment)
chain: MRSYEFVTNTPLKLDRHKVYLVDDVAVTRTVPLSQPLSPSTASSSYNMIERCVVVQRQPDGFGLTVNSEFPVYVHTLKQDGAAYCAGVRQGDRIVKVNGMSVSPNNHKEVLQMISNGHNVALTLLGKPPDPISNISFPNQQVEQKIHIADPVLIEASSKSWRQRRNELLGQMVAEERRNVEGLRESSQNGEKIDRALKRIVSLQSQLKQLKPESIISDSQKSLTNLNMDIDSDEEENDVVYLPESQGGPFSNLAELKTHPAHLAVFINYLLLHGNPSSLFFYLITDAYQSAYGTAKEFRRWAFEIFSTFIIPNSPMCIPNSNQSVIQPIDKIMCMTAEHIGDSDTDTLKRIFVPGRQRAVTDINMYLNDFRQKKQLGGQVSESTNQLTHMVRGDMTMEHRVGEQMLFRCLEQCSNSTDFDSCEIRTQSIISSLATVIKIVLGKTSSSSNEKMLDKFPQFMARDKPPGKSRKLPANIKNRIQVKGHSFSINSVNTVHYCYQCRDAIWGMQPWIYFCSNCDVKVHPHCTSALTDACYPVTQSKQKSKSRLSGLIGRSDANDDEDSGSNARHEQPNVKSTSSDSGIGGEHNMDRGLVSRSHSMRYRVATLPQSLSEDKVSIPSSKRDRSVTPSWQRST
B1 came in with a Kd of 5.25 µM.
